The values that follow come from patent US20220204629A1 (NEW YORK UNIVERSITY, published 2022).

For test [1], the target named is T1, human Galectin-9 CRD1 (residues 1-148) (human, UniProt O00182 1-148, biotinylated in vitro with BirA at the Avitag).
T1 construct: also called CRD1 domain of galectin-9; not shown: Avitag left upstream after thrombin cleavage of the GST fusion (pGEX)
Nature of the test: bead-based binding assay. As to the method:
The affinities of the antibodies were assessed using a bead-based assay as previously described (Nishikori et al., J Mol Biol, 2012, 424, 391-399) and surface plasmon resonance (SPR). In the bead-based assay, a biotinylated protein (either a Galectin-9 sample or a Fab sample) was immobilized on streptavidin-coated Dynabeads M280 via the biotin-streptavidin interaction. After blocking the excess biotin-binding sites on the beads using unconjugated biotin, binding titration was performed by incubating the second component (i.e., Fab for immobilized Galectin-9 or vice versa), followed by quantification using a dye-labeled neutravidin (ThermoFisher) and flow cytometry analysis. In experiments where the second component is an IgG, a dye-labeled anti-human IgG or anti-mouse IgG antibody was used for detection.
The binding activity of clone G9.1-8m13 is evaluated using conventional methods.

In test [2] the target is T1, human Galectin-9 CRD1 (residues 1-148). Nature of the test: bead assay, flow cytometry: biotinylated Galectin-9 CRD1 on streptavidin beads, G9.2-17 human IgG4 titrated. From the text:
For further characterization, one clone, […] (a human IgG4 molecule) was screened for CRD specificity. Biotinylated Galectin-9 CRD1 or CRD2 was immobilized onto streptavidin-coated magnetic beads. The beads were blocked with excess biotin, followed by titration of the G9.2-17 human IgG4 antibody. The beads were then stained and quantified via flow cytometry.

Test [3] has as its target T2, cynomolgus monkey galectin-9 CRD2 (cynomolgus monkey, UniProt A0A7N9IHL9 218-355).
T2 construct: domain: CRD2; Only two short stretches of a macaque protein are given; also called CRD2 domain of cynomolgus galectin-9; primate gal-9 CRD2
Nature of the test: biolayer interferometry, G9.2-17 captured on anti-Fab probes, primate gal-9 CRD2 in solution, global fit. The method, then:
(§1) FIGS. 16A-16D include graphs showing biolayer interferometry analysis to measure binding affinity to human (FIG. 16A), mouse (FIG. 16B), primate (FIG. 16C) or rat (FIG. 16D) gal-9 CRD2. G9.2-17 was captured onto anti-Fab probes and incubated either recombinant human, mouse, primate or rat gal-9 CRD2. Global fit, shown in black line, was used to calculate the dissociation constants. Representative data from triplicate runs shown.
(In general: In BLI a coated tip is dipped into the sample, and binding shifts an interference pattern.)

Test [4] has as its target T3, rat galectin-9 CRD2 (rat, UniProt P97840 226-354, limits assumed).
T3 construct: domain: CRD2; Only two short stretches of the rat protein are given; also called CRD2 domain of rat galectin-9; rat gal-9 CRD2
Nature of the test: biolayer interferometry, G9.2-17 captured on anti-Fab probes, rat gal-9 CRD2 in solution, global fit. As to the method:
as §1

The target of test [5] is human Galectin-9 CRD2 W277A mutant (human, UniProt O00182 218-355, immobilised on streptavidin coated beads (biotinylated)). Nature of the test: mutant on streptavidin beads, G9.2-17 titrated. As to the method: (§2) FIG. 17 depicts a bar graph showing the results of epitope mapping studies of gal-9 CRD2 using alanine scanning to characterize G9.2-17 binding. Galectin-9 CRD2 mutants were generated using site-directed mutagenesis. Mutants were immobilized onto streptavidin coated beads and G9.2-17 was titrated to generate a saturation curve. KD values were calculated by fitting curves to Michaelis Menton kinetics. ΔΔG values of binding for each mutant versus wild-type galectin shown. Arrows indicate values that are outside the limit of detection for the assay. Higher ΔΔG values represent greater contribution to G9.2-17 epitope. Mutations were mapped onto the surface of gal CRD2 crystal structure (PDB 3nv4).
human Galectin-9 CRD2 W277A mutant, sequence (O00182 218-355 W309A): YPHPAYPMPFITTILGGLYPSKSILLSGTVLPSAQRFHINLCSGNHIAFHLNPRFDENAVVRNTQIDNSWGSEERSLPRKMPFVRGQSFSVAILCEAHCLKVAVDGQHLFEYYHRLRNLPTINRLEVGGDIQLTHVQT
(§3) To determine the epitope of G9.2-17 on galectin-9 CRD2, we first mutated residues in several positions throughout CRD2 including R239, which is crucial for carbohydrate binding (Zhu et al., 2005). Only one mutation, W277K, decreased G9.2-17 binding. […] To further map the binding patch of G9.2-17, residues that are spatially adjacent to W277 were mutated to alanine and their binding was assessed. W277A and L279A result in complete abrogation of G9.2-17 binding in our assay. […] These residues are located adjacent in space in the beta-sheet, and form a patch on the back side of CRD2 relative to its carbohydrate recognition site.

Test [6] concerns the target human Galectin-9 CRD2 L279A mutant (human, UniProt O00182 218-355, immobilised on streptavidin coated beads (biotinylated)). Nature of the test: mutant on streptavidin beads, G9.2-17 titrated. As to the method:
as §2, §3

The target of test [7] is T4, human Galectin-9 CRD2 (residues 218-355) (human, UniProt O00182 218-355, biotinylated in vitro with BirA at the Avitag (where immobilised)).
T4 construct: also called human gal-9 CRD2; wild-type Galectin-9 CRD2; not shown: N-terminal hexahistidine tag, Avitag and TEV cleavage site of the pHBT vector
T4 sequence (O00182 218-355 limits assumed): as the sequence (O00182 218-355 W309A) above, with A92W counted along it
The test is described as follows: biolayer interferometry, G9.2-17 captured on anti-Fab probes, human gal-9 CRD2 in solution, global fit. The method, then: as §1

Test [8] has as its target T4, human Galectin-9 CRD2 (residues 218-355). Nature of the test: bead based binding, human CRD2.
The target is the same in test [9]. Nature of the test: ELISA, antibody titrated over immobilized human CRD2. (In general: In an ELISA, binding on a coated surface is turned into a signal by an enzyme label.)
The target of test [10] is T3, rat galectin-9 CRD2. Nature of the test: bead based binding, rat CRD2.
Test [11] has as its target T2, cynomolgus monkey galectin-9 CRD2. Nature of the test: bead based binding, cynomolgus CRD2.
For test [12], the target named is T1, human Galectin-9 CRD1 (residues 1-148). Nature of the test: bead based binding.

T1 sequence (O00182 1-148): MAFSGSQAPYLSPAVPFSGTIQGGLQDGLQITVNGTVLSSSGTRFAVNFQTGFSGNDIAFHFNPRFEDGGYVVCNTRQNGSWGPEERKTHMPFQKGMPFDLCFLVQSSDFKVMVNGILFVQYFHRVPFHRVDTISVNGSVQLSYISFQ
T3 sequence (P97840 226-354 limits assumed): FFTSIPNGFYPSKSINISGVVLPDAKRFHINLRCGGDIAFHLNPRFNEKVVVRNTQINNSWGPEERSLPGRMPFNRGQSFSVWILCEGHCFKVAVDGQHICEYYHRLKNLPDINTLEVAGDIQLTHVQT
human Galectin-9 CRD2 L279A mutant, sequence (O00182 218-355 L311A): as the sequence (O00182 218-355 W309A) above, with A92W, L94A counted along it

B1: G9.1-8m13 Fab (Fab, V domains shown)
VH: EVQLVESGGGLVQPGGSLRLSCAASGFTVSSSSIHWVRQAPGKGLEWVAYIYPYSSSSSYADSVKGRFTISADTSKNTAYLQMNSLRAEDTAVYYCARYSTYSSKWVWGMDYWGQGTLVTVSS
VL: DIQMTQSPSSLSASVGDRVTITCRASQSVSSAVAWYQQKPGKAPKLLIYSASSLYSGVPSRFSGSRSGTDFTLTISSLQPEDFATYYCQQSYYDSNPITFGQGTKVEIKR
notes: Fab purified from E. coli; also called purified G9.1-8m13 Fab; 9.1-8mut13
Broadly, the Kd is the concentration at which binding is half-saturated. In [1], B1 yielded a Kd of 20.7 nM.

B2: G9.1-8m13 mIgG2a (antibody, V domains shown)
VH: EVQLVESGGGLVQPGGSLRLSCAASGFTVSSSSIHWVRQAPGKGLEWVAYIYPYSSSSSYADSVKGRFTISADTSKNTAYLQMNSLRAEDTAVYYCARYSTYSSKWVWGMDYWGQGTLVTVSS
VL: DIQMTQSPSSLSASVGDRVTITCRASQSVSSAVAWYQQKPGKAPKLLIYSASSLYSGVPSRFSGSRSGTDFTLTISSLQPEDFATYYCQQSYYDSNPITFGQGTKVEIKR
notes: also called purified G9.1-8m13 mIgG2a molecule
Take B2: in test [1], the Kd stood at 0.3 nM.

B3: G9.2-17 human IgG4 (antibody, V domains shown)
VH: EVQLVESGGGLVQPGGSLRLSCAASGFTVSSSSIHWVRQAPGKGLEWVAYISSSSGYTYYADSVKGRFTISADTSKNTAYLQMNSLRAEDTAVYYCARYWSYPSWWPYRGMDYWGQGTLVTVSS
VL: DIQMTQSPSSLSASVGDRVTITCRASQSVSSAVAWYQQKPGKAPKLLIYSASSLYSGVPSRFSGSRSGTDFTLTISSLQPEDFATYYCQQSSTDPITFGQGTKVEIKR
notes: also called G9.2-17 hIgG4; G9.2-17 IgG4
Consider B3, for which the binding result in [2] is “no binding (tested: 50 nM)”; in test [5], “no binding”; in test [6], “no binding”. Moreover, the Kd in test [3] was 0.615 nM; with rat galectin-9 CRD2 [4], 2.71 nM; in test [7], 0.183 nM; in test [8], 0.15 nM; in test [9], 0.42 nM; with rat galectin-9 CRD2 [10], 0.31 nM. The molecule also came in with a Kd in test [11] of 0.31 nM.

B4: G9.2-17 mIgG1 (antibody, V domains shown)
VH: EVQLVESGGGLVQPGGSLRLSCAASGFTVSSSSIHWVRQAPGKGLEWVAYISSSSGYTYYADSVKGRFTISADTSKNTAYLQMNSLRAEDTAVYYCARYWSYPSWWPYRGMDYWGQGTLVTVSS
VL: DIQMTQSPSSLSASVGDRVTITCRASQSVSSAVAWYQQKPGKAPKLLIYSASSLYSGVPSRFSGSRSGTDFTLTISSLQPEDFATYYCQQSSTDPITFGQGTKVEIKR
notes: also called mouse IgG1 version of G9.2-17; mIgG1 G9.2-17
B4: the binding result in [12] is recorded as “no binding”. In addition, the Kd in [8] was determined as 0.18 nM; in test [9] it was 0.45 nM; with rat galectin-9 CRD2 [10], 0.35 nM; in test [11], 0.3 nM.
